For test [1], the system named is HMG1 stimulated cytokine gene expression in mouse macrophages. Description: Taqman analysis of mouse macrophages (mMØ) stimulated with HMG1. It counts as cell-based. The note with it: rHMG1. As to the method:
Taqman Analysis of Mouse Macrophages (mMØ) Stimulated with HMG1: Mouse bone marrow was harvested by rinsing the femurs of normal C57BL/6 mice. The isolated bone marrow cells were then cultured in Dulbecco's modified Eagle's medium (DMEM) supplemented with 10% fetal bovine serum (FBS) and 50 ng/ml M-CSF for 24 h, nonadherent cells were collected and grown for 6 days in complete DMEM supplemented with 10% FBS and 50 ng/ml M-CSF in T-75 flasks (1×10^7 cells/15 ml/flask). On day 6, adherent cells were harvested and reseeded with 5 ng/ml MCSF in α-MEM containing 10% FBS in 96-well plates (1×10^5 cells/200 μl/well) overnight.
The culture medium was replaced with α-MEM and incubated for 2 hours before stimulation to starve cells. HMGB1 (recombinant CBP-HMGB1 fusion protein generated from E. coli at 10 μg/ml), mouse-RAGE-Fc or human-RAGE-Fc fusion protein were pre-mixed with various blocking reagents at 100 μg/ml in α-MEM for 20 min at RT, then 100 μl of the mixtures was added to the cells and incubated at 37° C. for 2 hours. The supernatant was then removed, and the RNA was extracted using Ambion's MagMAX™-96 Total RNA Isolation Kit. All of the recovered RNA were used in a reverse transcriptase (RT) reaction with SuperScript™ III and oligo(dT) primer (Invitrogen) for synthesis of cDNA. 1 μl or 2 μl of the resulting cDNA was used for real time quantitative PCR analysis (TaqMan) using ABI Prism 7700 or 7000.

The subject of test [2] is THP-1 cells. Description: HMG1 binding to THP-1 cells. Details: species or system human. As to the method: HMG1 binding to THP-1 Cells: Recombinant rat HMGB-1 was labeled using Eu-labelling Kit from PerkinElmer. Molar ratio of HMGB-1 to Eu is 1:5. THP-1 were cultured as the protocol from ATCC. Cells were harvested and suspended at concentration 1×10^6/ml in assay buffer containing 1×DELFIA L*R binding buffer (PerkinElmer), 50% of DELFIA stabilizer (PerkinElmer) and 0.05% of sodium azide. 100 μl of cells (1×10^5) was added into wells in 96 well cell culture plate. The plate was incubated with gentle shaking at 4° C. for one hour. 100 μl of assay buffer containing 2 nM of Europium-labeled HMGB-1 mixed with various concentrations (333, 166.5, 83.25, 41.6, 20.8, 10.4 and 5.2 nM) of human anti-HMGB1 antibodies E11 or G2 or soluble human RAGE-Fc, were added into each wells respectively. After one hour incubation with gentle shaking at 4° C., the cells were washed four times with 1×L*R wash buffer (PerkinElmer) by centrifuging at 1200 rpm×5 min. 200 μl of enhancement solution was added into each well to dissociate and enhance Eu fluorescence at 615 nm. The fluorescence was measured with Wallac Victor Fluorometer. Assay was performed in triplicate and human antibody R3-47 was used the negative isotype control.

In test [3] the test system is HMG1 peptides. Description: HMG1 B Box and peptide mapping ELISA. The note with it: overlapping HMGB1 peptides. It is filed as binding. As to the method:
HMG1 B Box and Peptide Mapping: Individual wells of a 96-well immunoplate (EIA/RIA plate, High binding, Costar) were coated with HMG1 B Box peptide amino acids 91-169 (FIG. 5A) or amino acids 150-183 (FIG. 5B) at 10 μg/ml in PBS at 4° C. overnight. The plate was then blocked with 4% milk powder dissolved in PBS at 37° C. for 1 hour. The blocking solution was removed and replaced with human anti-HMG1 antibodies at various concentrations (see FIGS. 5A-B). The plate was then washed (ELX-405 Plate washer, BIO-TEK) and secondary antibody (anti-human IgG-HRP, PIERCE) was added at a final concentration of 1:125,000 at 37° C. for 1 hour. HRP activity was detected with Sureblue HRP substrate (KPL). Plates were read at 450 nm using a Kinetic Microplate Reader (Molecular Devices). To obtain more detailed peptide mapping information, similar ELISA assays were performed using 16 biotinylated overlapping peptides spanning the HMGB1 protein from amino acid 1 to 215 as follows, maxisorp microtiter plate was coated with 2 μg/ml of NeutroAvidin (Pierce) overnight at 4° C. After washing and blocking with 1% BSA in PBS, the biotinylated peptides were individually added into the avidin coated wells and incubated for 30 min at room temperature. The serial diluted antibody G4, S16 and S6 at the initial concentration at 10 μg/ml were then transferred into the wells followed by adding mouse anti human IgG-HRP conjugate (Pierce). Detection was accomplished by adding 50 μl of tetramethylbenzidine (TMB) substrate (KPL) and the absorbance was read at […]. The peptides used were amino acids: 46-63; 61-78; 76-93; 91-108; 106-123; 136-153; 151-168; 166-183; 179-185; 181-198; and 196-215.
In general terms: An ELISA detects its analyte on a solid surface through an enzyme-linked reagent.

In test [4] the test system is HMG1 enhancement of PAMP stimulation. Description: Inhibition of the enhancement of PAMP stimulation by HMG1 (Table 1 summary). It is filed as cell-based. Particulars: PAMP used and cytokine assayed are indicated. As to the method: Inhibition of HMG1 Mediated Enhancement of TLR Signaling: Human PBMCs were treated with Tx-HMGB1+LPS (as described above) in combination with either the Anti-HMG1 antibody E11, S16 or G4, anti-TLR4 antibody, or isotype control antibodies (R3, IgG2a) and incubated overnight at 37° C., 5% CO2 in the presence of 8 U/mL Polymyxin B. The supernatants were assayed for cytokine levels (FIG. 22, right panel).
Inhibition of HMG1 Mediated Enhancement of TLR Signaling: Freshly isolated bone marrow cells were stimulated with TLR9 ligand CpG2216 (0.3 μM) and thymus HMGB1 (10 μg/mL) in the presence of different concentration of the anti-HMGB1 mAb E11 or control human IgG for 24 hr and IFN-a in the supernatant was measured by ELISA. CpG2216, HMGB1 and nonstimulatory DNA were used alone or in combination as controls for the assay.

“Also recorded” adds a separate entry of the source.

B1: G2: human anti-HMG1 IgG1 from Fab phage display library; VL/VH aa SEQ ID NO: 30/32 (antibody, listed as Homo sapiens, V domains shown)
VH: EVQLLESGGGLVQPGGSLRLSCAASGFTFSWYKMQWVRQAPGKGLEWVSGISPSGGSTAYADSVKGRFTISRDNSKNTLYLQMNSLRAEDTAVYYCAKMGLFNTGNSYVDYWGQGTLVTVSS
VL: AQSELTQPPSVSEAPGQRVTISCSGSTSNIGNNAVIWYQQLPGKAPKLLIYYDDLLPSGVSDRFSGSKSGTSGSLAISGLQSEDEADYYCASWDDNLNGPLFGGGTKLTVL
In the case of B1, in test [1], the “inhibition of HMG1-induced IL-1β gene expression” value is recorded as “significantly reduce HMG1-induced IL-1b gene expression; also recorded: robustly inhibited” and the “inhibition of HMG1-induced TNF-a gene expression” value is given as “significantly reduce HMG1-induced TNF-α gene expression; also recorded: robustly inhibited”. For the same molecule, in test [2], the “block of HMG1 binding to THP-1 cells” value is reported as “block the binding of HMG1 to THP-1 cells”.

B2: S16: human anti-HMG1 antibody, ATCC PTA-6259; VL/VH aa SEQ ID NO: 13/15 (antibody, listed as Homo sapiens, V domains shown)
VH: EVQLLESGGGLVQPGGSLRLSCAASGFTFSWYSMLWVRQAPGKGLEWVSYISPSGGFTNYADSVKGRFTISRDNSKNTLYLQMNSLRAEDTAVYYCARWDYNSGWYYDHWGQGTLVTVSS
VL: AQDIQMTQSPDTLSLSPGERATLSCRASQSVNSRNLAWYQQKPGQAPRLLIYGASTRATGIPDRFSGSVSGTEFTLTISSLQPDDFATYYCQQYNSYFTFGQGTKLEIK
As to B2, the “detailed peptide mapping / domain recognized” value in test [3] was “strongest binding to the B-box peptide 91-108 with lesser binding to peptides 166-183 and 179-186; also recorded: binds the B-box peptide 91-108 and to a lesser extent peptides 166-183 and 179-186”. Besides, in test [4], the “Inhibition of Synergy (PAMP/Cytokine)” value is on record as “LPS/IL-6”.

B3: E11: human anti-HMG1 antibody, recognizes HMG1 A-Box; VL/VH aa SEQ ID NO: 24/26 (antibody, listed as Homo sapiens, V domains shown)
VH: EVQLLESGGGLVQPGGSLRLSCAASGFTFSRYQMNWVRQAPGKGLEWVSSISPSGGHTHYADSVKGRFTISRDNSKNTLYLQMNSLRAEDTAVYYCAKDGRQGKISTVDHWGQGTLVTVSS
VL: AQDIQMTQSPGTLSLSPGERATLSCRASQSVRSNFLAWYQQKPGQAPRLLIYGASRRASGIPDRFSGSGFGADFTLSISRLEPEDFAVYYCQQYGSSPNTFGQGSRVEIK
Consider B3, for which, in test [1], the “inhibition of HMG1-induced IL-1β gene expression” value is “significantly reduce HMG1-induced IL-1b gene expression; also recorded: robustly inhibited”. Also, in test [2], the “block of HMG1 binding to THP-1 cells” value was “block the binding of HMG1 to THP-1 cells”. The “detailed peptide mapping / domain recognized” value in test [3] was “recognizes the HMG1 A-Box”. Besides, the “Inhibition of Synergy (PAMP/Cytokine)” value in test [4] is “CpG/IFN-a, LPS/IL-6”.

These data come from patent US20080311122A1, “Antagonists of Hmgb1 and/or Rage and Methods of Use Thereof” (Medimmune, LLC, priority 2005, published 2008).
